Among the data in publication PMC6488122 are Ka values, retold here.

This experiment has as its target ERα-LBD (ligand binding domain of estrogen receptor α). Nature of the experiment: other fluorescence titration; quenching of the endogenous fluorescence of ERα-LBD (0.2 μm, 600 μL) by microaddition of CTX solution; excitation 295 nm, slits 10 nm, 25°C.

Substance “chlorotoxin (CTX), recombinant, cut from GST-CTX (from UniProt P45639 1-36) (peptide)” showed a Ka of 3e+07 M⁻¹.
